Biological target: T1, histidine tagged SFTSV Gn-Cκ (Gn ectodomain, strain Gangwon/Korea/2012) (SFTSV (Dabie bandavirus) strain …, UniProt U3GR55, strain)
T1 construct: source: HEK 293F or Expi293F, transfected, purified
Test: SPR; Biacore T200, […]; dissociation 5 min in PBS with 0.005% Tween20
Details: both partners purified

B1: Ab10 IgG1 antibody (antibody, V domains shown)
VH: EVQLVESGGGVVQPGRSLRLSCAASGFTFSGYGIHWVRQAPGKGLEWVALISYDGSNKYYADSVKGRFTISRDNSKNTLYLQMNSLRAEDTAVYYCAKDRDYFGSGFFDYWGQGTLVTVSS
VL: ELVMTQSPSSLSASVGDTVTITCRASQSIYTYLNWYHQTPGKAPKLLISAASSLQSGVPSRFSGSGSGTDFTLTISSLQPEDFATYYCQQYADVPVTFGGGTKLEIK
notes: also called Ab10 mAb; human IgG1 monoclonal antibody Ab10; source: HEK 293F, transfected, purified from culture supernatant (MabSelect)
  Kd: 0.104 nM
  koff: 7.7e-05 s⁻¹
  kon: 740000 M⁻¹ s⁻¹
